Laboratory results as given in patent publication US20030186325A1 (GlaxoSmithKline, published 2003).
Each block holds one binder with its values, some of them ahead of it.

Tests used:
α4β1 integrin [1] = target: T1, α4β1 integrin (UniProt P13612 34-1032; P05556 21-798); assay: adhesion of J6 and HL60 cells to coated GST fusion with function blocking antibodies
T1 construct: whole, on cells; Endogenous integrin on the J6 and HL60 cell lines; adhesion run with 0.2 mM MnCl2 (and TPA for HL60); also called α4 integrin on J6 and HL60 cells
T1 sequence (P13612 34-1032, chain 1 of 2): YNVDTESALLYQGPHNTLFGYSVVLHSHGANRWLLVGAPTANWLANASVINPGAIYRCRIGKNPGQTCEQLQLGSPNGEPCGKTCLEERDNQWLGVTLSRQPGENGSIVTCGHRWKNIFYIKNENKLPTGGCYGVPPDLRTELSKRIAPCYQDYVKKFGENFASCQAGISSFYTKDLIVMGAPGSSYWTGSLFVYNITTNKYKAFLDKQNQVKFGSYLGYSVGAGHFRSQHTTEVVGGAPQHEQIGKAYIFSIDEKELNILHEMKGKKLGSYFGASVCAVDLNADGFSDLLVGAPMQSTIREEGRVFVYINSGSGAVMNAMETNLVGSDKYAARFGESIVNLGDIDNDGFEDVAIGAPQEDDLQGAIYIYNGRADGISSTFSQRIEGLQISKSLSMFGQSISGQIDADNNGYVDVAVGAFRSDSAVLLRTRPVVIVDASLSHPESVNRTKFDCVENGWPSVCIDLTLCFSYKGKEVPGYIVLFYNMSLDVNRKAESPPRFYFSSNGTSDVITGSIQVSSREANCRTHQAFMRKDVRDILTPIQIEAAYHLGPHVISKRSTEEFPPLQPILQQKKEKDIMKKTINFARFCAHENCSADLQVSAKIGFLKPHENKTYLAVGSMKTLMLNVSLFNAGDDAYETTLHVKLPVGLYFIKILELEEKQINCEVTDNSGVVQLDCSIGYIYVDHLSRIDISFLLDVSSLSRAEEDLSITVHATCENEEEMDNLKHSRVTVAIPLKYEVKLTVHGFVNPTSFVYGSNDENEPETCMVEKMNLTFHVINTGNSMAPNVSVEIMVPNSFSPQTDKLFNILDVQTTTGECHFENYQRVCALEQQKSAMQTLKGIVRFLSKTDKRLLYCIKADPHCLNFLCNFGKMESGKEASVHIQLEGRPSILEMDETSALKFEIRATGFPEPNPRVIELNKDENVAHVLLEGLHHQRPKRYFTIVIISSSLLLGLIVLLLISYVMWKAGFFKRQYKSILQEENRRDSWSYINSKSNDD
T1 sequence (P05556 21-798, chain 2 of 2): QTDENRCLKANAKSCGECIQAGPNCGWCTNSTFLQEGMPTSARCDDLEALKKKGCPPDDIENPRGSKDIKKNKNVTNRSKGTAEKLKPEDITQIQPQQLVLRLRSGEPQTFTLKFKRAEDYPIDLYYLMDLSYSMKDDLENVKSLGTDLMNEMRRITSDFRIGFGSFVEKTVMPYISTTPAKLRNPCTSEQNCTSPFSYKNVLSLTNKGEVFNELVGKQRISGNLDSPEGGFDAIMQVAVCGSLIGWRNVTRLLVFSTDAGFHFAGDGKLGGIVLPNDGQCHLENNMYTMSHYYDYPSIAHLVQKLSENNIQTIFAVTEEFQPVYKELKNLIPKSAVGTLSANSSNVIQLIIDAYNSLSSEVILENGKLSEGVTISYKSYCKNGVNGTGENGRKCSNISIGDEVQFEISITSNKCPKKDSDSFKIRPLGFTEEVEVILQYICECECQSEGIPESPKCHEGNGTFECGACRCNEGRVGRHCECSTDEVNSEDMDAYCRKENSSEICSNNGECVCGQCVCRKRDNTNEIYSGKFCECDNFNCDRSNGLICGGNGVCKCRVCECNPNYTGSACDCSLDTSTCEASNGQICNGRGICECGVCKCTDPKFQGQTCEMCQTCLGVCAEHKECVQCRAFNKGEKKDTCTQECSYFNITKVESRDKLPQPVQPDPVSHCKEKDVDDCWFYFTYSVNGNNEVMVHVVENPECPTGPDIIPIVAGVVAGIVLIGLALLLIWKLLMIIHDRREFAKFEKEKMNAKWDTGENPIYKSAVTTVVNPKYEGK
Experimental: Cells were incubated for 35 minutes at 37° C. in the presence of or absence of various function blocking anti-integrin antibodies at 10 μg/ml. To prebind the antibodies cells were preincubated on ice for 10 minutes before being moved to 37° C. Each data point represents the mean±SD of duplicate points. […] To stimulate α4β1 binding to OPN, 50 ng/ml TPA was also included. Cells were incubated for 35 minutes at 37° C. in the presence or absence of various function blocking anti-integrin antibodies at 10 μg/ml. To prebind the antibodies cells were preincubated on ice for 10 minutes before being moved to 37° C. Each data point represents the mean±SD of duplicate points.

α4β1 integrin [2] = target: T1, α4β1 integrin; assay: J6 cell adhesion to coated GST fusion, with and without BIO1211
α5β1 integrin [3] = target: T2, α5β1 integrin (UniProt P08648 42-1049; P05556 21-798); assay: J6 cell adhesion to coated GST fusion that is left in the presence of BIO1211
T2 construct: whole, on cells; Endogenous integrin on J6 cells
T2 sequence (P08648 42-1049, chain 1 of 2): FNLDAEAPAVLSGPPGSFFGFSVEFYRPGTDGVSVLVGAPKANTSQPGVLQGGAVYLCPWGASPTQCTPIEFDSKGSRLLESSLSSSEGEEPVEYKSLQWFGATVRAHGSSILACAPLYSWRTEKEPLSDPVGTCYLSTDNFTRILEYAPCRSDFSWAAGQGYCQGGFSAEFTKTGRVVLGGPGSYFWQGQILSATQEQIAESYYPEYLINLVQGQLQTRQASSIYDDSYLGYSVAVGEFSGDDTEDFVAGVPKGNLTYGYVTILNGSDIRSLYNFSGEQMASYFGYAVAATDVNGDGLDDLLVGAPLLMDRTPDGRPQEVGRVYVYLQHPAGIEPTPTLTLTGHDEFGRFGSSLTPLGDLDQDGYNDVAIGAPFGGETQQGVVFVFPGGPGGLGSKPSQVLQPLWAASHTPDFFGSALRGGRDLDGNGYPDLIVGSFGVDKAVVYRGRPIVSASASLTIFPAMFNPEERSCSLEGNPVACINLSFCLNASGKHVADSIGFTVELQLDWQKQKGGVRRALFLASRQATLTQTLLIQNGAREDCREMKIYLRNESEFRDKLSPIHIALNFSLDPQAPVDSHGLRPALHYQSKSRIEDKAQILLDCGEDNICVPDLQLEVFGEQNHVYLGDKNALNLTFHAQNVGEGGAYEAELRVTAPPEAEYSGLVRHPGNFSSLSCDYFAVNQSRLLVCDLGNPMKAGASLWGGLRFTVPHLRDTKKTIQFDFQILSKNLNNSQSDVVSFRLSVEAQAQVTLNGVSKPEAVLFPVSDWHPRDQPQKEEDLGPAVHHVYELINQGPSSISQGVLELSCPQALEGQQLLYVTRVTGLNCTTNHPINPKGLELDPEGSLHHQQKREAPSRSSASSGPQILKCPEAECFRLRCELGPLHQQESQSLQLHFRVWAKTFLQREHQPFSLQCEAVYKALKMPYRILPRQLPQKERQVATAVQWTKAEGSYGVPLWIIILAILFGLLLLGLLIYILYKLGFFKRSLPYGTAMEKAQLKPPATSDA
T2 sequence (P05556 21-798, chain 2 of 2): as the sequence (P05556 21-798, chain 2 of 2) above

α5β1 integrin [4] = target: T2, α5β1 integrin; assay: J6 cell adhesion to coated GST fusion in the presence of BIO1211

binding result (α4β1 integrin [1]): binds
B1: GST fusion protein representing intact osteopontin (aa17-314) (ligand)
chain: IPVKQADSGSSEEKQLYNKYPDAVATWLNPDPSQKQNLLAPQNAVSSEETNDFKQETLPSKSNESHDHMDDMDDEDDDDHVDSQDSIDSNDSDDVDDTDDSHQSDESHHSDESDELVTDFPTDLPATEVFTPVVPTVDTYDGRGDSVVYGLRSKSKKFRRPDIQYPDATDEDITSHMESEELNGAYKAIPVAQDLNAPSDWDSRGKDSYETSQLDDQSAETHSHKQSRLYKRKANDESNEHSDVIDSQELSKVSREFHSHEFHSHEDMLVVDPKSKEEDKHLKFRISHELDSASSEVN
notes: Expressed in E. coli UT5600; coated on plates; also called intact OPN; full length OPN; not shown: GST carrier and the linker of the modified pGEX-2T vector

binding result (α4β1 integrin [2]): binds
binding result (α5β1 integrin [3]): binds
B2: GST fusion protein of thrombin cleaved OPN (aa17-168) (ligand)
chain: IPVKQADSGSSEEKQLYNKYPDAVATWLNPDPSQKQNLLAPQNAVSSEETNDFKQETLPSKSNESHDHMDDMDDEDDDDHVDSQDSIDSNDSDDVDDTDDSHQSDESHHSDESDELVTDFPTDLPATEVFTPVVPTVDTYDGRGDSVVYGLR
notes: Stop codon after aa168, so that Arg168 is the free C-terminus; also called thrombin cleaved fragment; not shown: GST carrier and the linker of the modified pGEX-2T vector

binding result (α4β1 integrin [2]): binds
binding result (α5β1 integrin [4]): binds
B3: GST fusion protein of OPN aa125-168 (ligand)
chain: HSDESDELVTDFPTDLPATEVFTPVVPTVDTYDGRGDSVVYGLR
notes: not shown: GST carrier and the linker of the modified pGEX-2T vector
